Laboratory results published in US20160257760A1 (OXFORD BIOTHERAPEUTICS, published 2016).

Legend:
AVYFHQHS = molecular target: T1, AVYFHQHS; test: peptide microarray, 1 µg/mL LY75_A1, anti-human IgG Alexa 647
T1 peptide: AVYFHQHS
Procedure: (§1) The chip comprised three panels such that the experiment was performed in triplicate. […] The binding assay was performed under the following conditions:—The microarray comprising the contiguous peptides in triplicate was washed with 1 mL of binding buffer at 4° C. for 20 min. […] The array was again washed with 0.5 mL of washing buffer at 4° C. for 30 min.

YFHQHSIL = molecular target: T2, YFHQHSIL; test: as above
T2 peptide: YFHQHSIL
Procedure: as §1

VYFHQHSI = molecular target: T3, VYFHQHSI; test: as above
T3 peptide: VYFHQHSI
Procedure: as §1

EAVYFHQH = molecular target: T4, EAVYFHQH; test: as above
T4 peptide: EAVYFHQH
Procedure: as §1

ELTYSNFH = molecular target: T5, ELTYSNFH; test: as above
T5 peptide: ELTYSNFH
Procedure: as §1

YSNFHPLL = molecular target: T6, YSNFHPLL; test: as above
T6 peptide: YSNFHPLL
Procedure: as §1

TYSNFHPL = molecular target: T7, TYSNFHPL; test: as above
T7 peptide: TYSNFHPL
Procedure: as §1

LTYSNFHP = molecular target: T8, LTYSNFHP; test: as above
T8 peptide: LTYSNFHP
Procedure: as §1

[1] = molecular target: T9, LY75 (DEC-205) on COLO205 cells (human, UniProt O60449 28-1722); test: competitive FACS on COLO205 cells
T9 construct: Endogenous LY75 on COLO205 human colorectal adenocarcinoma cells; also called Lymphocyte antigen 75
T9 sequence (O60449 28-1722 limits assumed): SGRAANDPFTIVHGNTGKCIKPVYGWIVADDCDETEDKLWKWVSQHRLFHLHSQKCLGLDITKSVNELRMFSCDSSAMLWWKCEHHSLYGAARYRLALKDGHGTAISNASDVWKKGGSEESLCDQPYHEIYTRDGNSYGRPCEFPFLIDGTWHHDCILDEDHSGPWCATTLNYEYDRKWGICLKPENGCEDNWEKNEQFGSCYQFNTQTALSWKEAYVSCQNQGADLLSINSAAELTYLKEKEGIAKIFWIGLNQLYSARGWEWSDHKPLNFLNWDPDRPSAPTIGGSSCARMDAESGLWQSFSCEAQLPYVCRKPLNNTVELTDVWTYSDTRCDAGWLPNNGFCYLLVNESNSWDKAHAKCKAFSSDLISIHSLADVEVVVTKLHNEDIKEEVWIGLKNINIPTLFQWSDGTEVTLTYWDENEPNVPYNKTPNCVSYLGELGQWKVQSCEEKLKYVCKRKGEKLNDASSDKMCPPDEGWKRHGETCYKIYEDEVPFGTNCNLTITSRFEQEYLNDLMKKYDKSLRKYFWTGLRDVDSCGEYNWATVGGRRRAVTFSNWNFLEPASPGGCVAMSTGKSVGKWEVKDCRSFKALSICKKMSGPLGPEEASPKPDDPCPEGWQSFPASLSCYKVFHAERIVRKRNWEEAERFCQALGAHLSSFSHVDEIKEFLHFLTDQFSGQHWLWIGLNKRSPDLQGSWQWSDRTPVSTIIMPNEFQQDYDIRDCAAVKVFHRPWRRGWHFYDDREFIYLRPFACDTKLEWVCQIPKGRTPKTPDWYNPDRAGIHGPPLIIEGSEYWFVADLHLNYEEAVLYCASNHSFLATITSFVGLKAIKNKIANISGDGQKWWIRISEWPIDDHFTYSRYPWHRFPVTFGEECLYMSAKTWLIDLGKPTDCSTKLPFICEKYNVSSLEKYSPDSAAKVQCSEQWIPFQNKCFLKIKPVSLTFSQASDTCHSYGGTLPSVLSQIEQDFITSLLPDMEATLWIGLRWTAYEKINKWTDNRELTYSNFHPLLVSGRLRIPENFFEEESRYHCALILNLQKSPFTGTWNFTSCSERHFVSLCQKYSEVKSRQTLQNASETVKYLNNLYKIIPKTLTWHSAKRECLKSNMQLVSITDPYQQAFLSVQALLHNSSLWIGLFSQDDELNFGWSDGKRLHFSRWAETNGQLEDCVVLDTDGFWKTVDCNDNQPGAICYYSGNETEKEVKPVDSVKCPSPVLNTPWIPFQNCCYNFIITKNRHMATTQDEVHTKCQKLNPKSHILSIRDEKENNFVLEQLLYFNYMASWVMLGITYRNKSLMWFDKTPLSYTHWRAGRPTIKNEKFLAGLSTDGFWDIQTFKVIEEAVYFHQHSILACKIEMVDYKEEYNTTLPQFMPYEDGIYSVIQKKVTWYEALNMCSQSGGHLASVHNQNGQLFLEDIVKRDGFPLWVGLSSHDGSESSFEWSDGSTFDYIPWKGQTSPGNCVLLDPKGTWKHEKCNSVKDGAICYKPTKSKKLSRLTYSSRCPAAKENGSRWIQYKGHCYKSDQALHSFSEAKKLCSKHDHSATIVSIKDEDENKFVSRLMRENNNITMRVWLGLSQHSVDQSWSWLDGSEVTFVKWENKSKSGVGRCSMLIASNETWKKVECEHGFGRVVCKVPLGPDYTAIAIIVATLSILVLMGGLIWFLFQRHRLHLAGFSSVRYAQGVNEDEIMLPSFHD
Procedure: Cells were washed and resuspended in FACS buffer (PBS+2% FBS), neutralized with growth media, and counted. Cells were plated at 50,000 cells per well in a V Bottom 96-well plate. Cells were washed once with FACS buffer (PBS (Fisher, catalog # SH30028-03)+2% FBS). […] Test wells that required single or multiple staining steps were left in FACS buffer as appropriate to ensure the final staining was completed simultaneously for all conditions tested. Two wells were left unstained in FACS buffer as controls.
After the incubation with blocking antibody, cells were washed twice in FACS buffer. […] The cells were washed as above and resuspended in FACS buffer plus 1 ug/ml mouse anti-maytansine antibody and incubated in ice for 45 minutes. The cells were washed as above and resuspended in FACS buffer containing 2 ug/ml goat anti-mouse kappa RPE. The cells were incubated on ice for 45 minutes then washed as above. The cells were resuspended in FACS buffer at 200 ul per well. Mean fluorescence intensity of each sample was determined using a Guava EasyCyte Plus HT Flow Cytometer (96 well plate formats) and the raw data was analyzed using the Guava Cytosoft.

YKGHCYKS = molecular target: T10, YKGHCYKS; test: peptide microarray, 1 µg/mL LY75_A1, anti-human IgG Alexa 647
T10 peptide: YKGHCYKS
Procedure: as §1

HCYKSDQA = molecular target: T11, HCYKSDQA; test: as above
T11 peptide: HCYKSDQA
Procedure: as §1

NGSRWIQY = molecular target: T12, NGSRWIQY; test: as above
T12 peptide: NGSRWIQY
Procedure: as §1

YKSDQALH = molecular target: T13, YKSDQALH; test: as above
T13 peptide: YKSDQALH
Procedure: as §1

RWIQYKGH = molecular target: T14, RWIQYKGH; test: as above
T14 peptide: RWIQYKGH
Procedure: as §1

SRWIQYKG = molecular target: T15, SRWIQYKG; test: as above
T15 peptide: SRWIQYKG
Procedure: as §1

GSRWIQYK = molecular target: T16, GSRWIQYK; test: as above
T16 peptide: GSRWIQYK
Procedure: as §1

KSDQALHS = molecular target: T17, KSDQALHS; test: as above
T17 peptide: KSDQALHS
Procedure: as §1

QYKGHCYK = molecular target: T18, QYKGHCYK; test: as above
T18 peptide: QYKGHCYK
Procedure: as §1

WIQYKGHC = molecular target: T19, WIQYKGHC; test: as above
T19 peptide: WIQYKGHC
Procedure: as §1

CYKSDQAL = molecular target: T20, CYKSDQAL; test: as above
T20 peptide: CYKSDQAL
Procedure: as §1

FTSCSERH = molecular target: T21, FTSCSERH; test: as above
T21 peptide: FTSCSERH
Procedure: as §1

SCSERHFV = molecular target: T22, SCSERHFV; test: as above
T22 peptide: SCSERHFV
Procedure: as §1

VSLCQKYS = molecular target: T23, VSLCQKYS; test: as above
T23 peptide: VSLCQKYS
Procedure: as §1

RHFVSLCQ = molecular target: T24, RHFVSLCQ; test: as above
T24 peptide: RHFVSLCQ
Procedure: as §1

SERHFVSL = molecular target: T25, SERHFVSL; test: as above
T25 peptide: SERHFVSL
Procedure: as §1

SLCQKYSE = molecular target: T26, SLCQKYSE; test: as above
T26 peptide: SLCQKYSE
Procedure: as §1

LCQKYSEV = molecular target: T27, LCQKYSEV; test: as above
T27 peptide: LCQKYSEV
Procedure: as §1

QKYSEVKS = molecular target: T28, QKYSEVKS; test: as above
T28 peptide: QKYSEVKS
Procedure: as §1

DREFIYLR = molecular target: T29, DREFIYLR; test: as above
T29 peptide: DREFIYLR
Procedure: as §1

YDDREFIY = molecular target: T30, YDDREFIY; test: as above
T30 peptide: YDDREFIY
Procedure: as §1

[2] = molecular target: T31, LY75 tryptic peptide GWHFYDDR (765-772); test: as above
T31 construct: Tryptic peptide of recombinant LY75, eluted from LY75_A1 beads and identified by LC-MS/MS
T31 peptide: GWHFYDDR
Procedure: as §1

EFIYLRPF = molecular target: T32, EFIYLRPF; test: as above
T32 peptide: EFIYLRPF
Procedure: as §1

PWRRGWHF = molecular target: T33, PWRRGWHF; test: as above
T33 peptide: PWRRGWHF
Procedure: as §1

B1: LY75_A1 monoclonal antibody (antibody, V domains shown)
VH: EVQLVESGGGLVKPGGSLRLSCAASGFTYSNAWMSWVRQAPGKGLEWVGRIKSKTDGGTTDYAAPVQGRFTISRDDSKNTLYLQMNSLKTEDTAVYYCTIFGVVSFDYWGQGTLVTVSS
VL: DVQMTQSPSSLSASVGDRVTITCRASQSISDYLSWYQQRPGKAPNLLIYAASNLKTGVPSRFSGSGSGTDFTLTISTLQPEDFATYYCQQSYRSPWTFGQGTKVEIKR
notes: also called LY75A1 antibody; LY75_A1 antibody
binding result (AVYFHQHS): binds | binding result (YFHQHSIL): binds | binding result (VYFHQHSI): binds | binding result (EAVYFHQH): binds | binding result (ELTYSNFH): binds | binding result (YSNFHPLL): binds | binding result (TYSNFHPL): binds | binding result (LTYSNFHP): binds | binding result [1]: binds | binding result (YKGHCYKS): binds | binding result (HCYKSDQA): no binding (tested: 1 µg/mL) | binding result (NGSRWIQY): binds | binding result (YKSDQALH): binds | binding result (RWIQYKGH): binds | binding result (SRWIQYKG): binds | binding result (GSRWIQYK): binds | binding result (KSDQALHS): no binding (tested: 1 µg/mL) | binding result (QYKGHCYK): binds | binding result (WIQYKGHC): no binding (tested: 1 µg/mL) | binding result (CYKSDQAL): no binding (tested: 1 µg/mL) | binding result (FTSCSERH): binds | binding result (SCSERHFV): binds | binding result (VSLCQKYS): binds | binding result (RHFVSLCQ): no binding (tested: 1 µg/mL) | binding result (SERHFVSL): binds | binding result (SLCQKYSE): no binding (tested: 1 µg/mL) | binding result (LCQKYSEV): no binding (tested: 1 µg/mL) | binding result (QKYSEVKS): no binding (tested: 1 µg/mL) | binding result (DREFIYLR): binds | binding result (YDDREFIY): binds | binding result [2]: binds | binding result (EFIYLRPF): binds | binding result (PWRRGWHF): binds
